Test results published in paper PMC6009646, “Regional conformational flexibility couples substrate specificity and scissile phosphate diester selectivity in human flap endonuclease 1”.

Molecular target: hFEN1QF (Homo sapiens, UniProt P39748 1-336, E120C;C235A;S293C;C311A)
Test: single-molecule FRET; 8 mM Ca2+; 20 nM DNA, ~50 pM protein; NMR: 10 mM HEPES-KOH pH 7.5, 6 mM KCl (76 mM KCl in titration), 0.1 mM EDTA, 4 mM NaN3, 100 mM bME, 298 K; smFRET: 55 mM HEPES-KOH pH 7.5, 110 mM KCl, 8 mM CaCl2, 0.1 mg/ml BSA, 1 mM DTT, room temperature
Details: protein: recombinant; tags: C-terminal HRV 3C-cleavable His6, cleaved; six residual C-terminal residues of the 3C site; bimolecular double flap: 5-nt 5' flap, 1-nt 3' flap; T1 has a GAA hairpin; F1:T1 annealed 1:1.1

hFEN1QF, sequence (P39748 1-336 E120C/C235A/S293C/C311A): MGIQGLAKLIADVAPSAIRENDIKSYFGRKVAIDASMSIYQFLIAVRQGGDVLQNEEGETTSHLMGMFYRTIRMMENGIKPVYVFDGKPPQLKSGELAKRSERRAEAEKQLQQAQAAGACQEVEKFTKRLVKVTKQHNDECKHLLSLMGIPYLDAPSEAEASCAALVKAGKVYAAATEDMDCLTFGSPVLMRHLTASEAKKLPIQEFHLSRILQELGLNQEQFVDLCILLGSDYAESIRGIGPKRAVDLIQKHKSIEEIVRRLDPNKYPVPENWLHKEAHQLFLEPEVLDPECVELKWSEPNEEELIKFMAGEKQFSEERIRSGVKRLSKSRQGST

B1: DF5,1 (F1/T1) (structured_DNA)
DNA 1: TTTTTACAAGGACTGCTCGACAC
DNA 2: GTGTCGAGCAGTCCTTGTGACGACGAAGTCGTCC
- binding result: binds
